Values of other authors as cited in patent publication US20050054617A1, “Use of potent, selective and non toxic c-kit inhibitors for treating mastocytosis” (priority 2001, published 2005).

Test system: systemic mastocytosis
Details: person, infiltration of bone marrow, skin and gastric mucosa; recurrence after four months

B1: INFγ: interferon used in the art for mastocytosis (protein, UniProt P01579 24-161, looked up)
Interferon gamma: QDPYVKEAENLKKYFNAGHSDVADNGTLFLGILKNWKEESDRKIMQSQIVSFYFKLFKNFKDDQSIQKSVETIKEDMNVKFFNSNKKKRDDFEKLTNYSVTDLNVQRKAIHELIQVMAELSPAAKTGKRKRSQMLFRG
**Q.** With B1 as the molecule, how does the “clinical outcome in systemic mastocytosis” value read?
**A.** improvement of the clinical situation and gastrointestinal and hematological signs
